In patent US10941182 (Amgen, dated 2021):
Starred links: 1 amine or outer side, 2 acyl side, 3 side chain; linkers in the order of their positions; H or OH if unused. Non-standard residues stand in square brackets, D forms with d. Primed or numbered codes have the meaning given here. *: point of attachment. AC4Abu = α-carboxy-4-aminobutyric acid, O=C(C(CCN[*:1])C(=O)[*:3])[*:2]; Oic = O=C(O)[C@@H]1C[C@@H]2CCCC[C@@H]2N1; Phe(4-Cl) = N[C@@H](Cc1ccc(Cl)cc1)C(=O)O; γGlu = O=C(O)[C@H](CCC(=O)[*:2])N[*:1]; 1Nal = N[C@@H](Cc1cccc2ccccc12)C(=O)O; NMeR = CN[C@@H](CCCNC(=N)N)C(=O)O; Tridecanoyl = CCCCCCCCCCCCC(=O)*; Cha = N[C@@H](CC1CCCCC1)C(=O)O; Gly(N-CH2CH2OH) = O=C(O)CNCCO; Tle = CC(C)(C)[C@H](N)C(=O)O; β3hP = O=C(O)C[C@@H]1CCCN1; Nle = CCCC[C@H](N)C(=O)O; Pip′ = not defined here; Deg = CCC(N)(CC)C(=O)O; AEEA = NCCOCCOCC(=O)O; Aib = CC(C)(N)C(=O)O; βAla = NCCC(=O)O

T1: rat APJ receptor (rat, UniProt Q9JHG3 1-377)
T1 sequence (looked up): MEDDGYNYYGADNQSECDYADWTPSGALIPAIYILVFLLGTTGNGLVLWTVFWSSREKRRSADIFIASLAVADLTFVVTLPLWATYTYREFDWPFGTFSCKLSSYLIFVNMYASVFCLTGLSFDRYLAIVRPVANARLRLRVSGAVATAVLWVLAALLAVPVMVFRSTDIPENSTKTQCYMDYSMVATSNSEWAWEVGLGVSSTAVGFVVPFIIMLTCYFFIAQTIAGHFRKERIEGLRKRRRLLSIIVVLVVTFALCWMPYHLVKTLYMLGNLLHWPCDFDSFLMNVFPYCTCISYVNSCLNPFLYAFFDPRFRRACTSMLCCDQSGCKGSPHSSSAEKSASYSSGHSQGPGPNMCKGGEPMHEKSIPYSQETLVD

T2: human APJ receptor (human, UniProt P35414 1-380)
T2 sequence (looked up): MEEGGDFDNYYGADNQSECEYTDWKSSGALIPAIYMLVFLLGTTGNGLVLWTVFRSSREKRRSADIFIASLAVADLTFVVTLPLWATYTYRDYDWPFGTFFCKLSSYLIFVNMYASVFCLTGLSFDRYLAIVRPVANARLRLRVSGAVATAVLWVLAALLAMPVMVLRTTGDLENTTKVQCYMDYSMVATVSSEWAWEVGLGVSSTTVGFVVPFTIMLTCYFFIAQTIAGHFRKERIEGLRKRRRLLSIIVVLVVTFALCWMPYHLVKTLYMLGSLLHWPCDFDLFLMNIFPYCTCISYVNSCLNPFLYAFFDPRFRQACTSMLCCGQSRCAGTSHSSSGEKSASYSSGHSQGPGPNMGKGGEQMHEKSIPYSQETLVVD

B1: Apelin polypeptide SEQ ID NO: 549 (peptide)
peptide: Tridecanoyl-[γGlu][AEEA][AEEA][dQ]RP[NMeR][Cha]SHKG[Oic][Nle][Deg][Phe(4-Cl)]-OH
SMILES: CCCCCCCCCCCCC(=O)N[C@@H](CCC(=O)NCCOCCOCC(=O)NCCOCCOCC(=O)N[C@H](CCC(N)=O)C(=O)N[C@@H](CCCNC(=N)N)C(=O)N1CCC[C@H]1C(=O)N(C)[C@@H](CCCNC(=N)N)C(=O)N[C@@H](CC1CCCCC1)C(=O)N[C@@H](CO)C(=O)N[C@@H](Cc1c[nH]cn1)C(=O)N[C@@H](CCCCN)C(=O)NCC(=O)N1[C@H](C(=O)N[C@@H](CCCC)C(=O)NC(CC)(CC)C(=O)N[C@@H](Cc2ccc(Cl)cc2)C(=O)O)C[C@@H]2CCCC[C@@H]21)C(=O)O
B2: Apelin polypeptide SEQ ID NO: 361 (peptide)
peptide: Tridecanoyl-[γGlu][AEEA][AEEA]QRP[NMeR][Cha]SHKGP[Nle]P[Phe(4-Cl)]-OH
SMILES: CCCCCCCCCCCCC(=O)N[C@@H](CCC(=O)NCCOCCOCC(=O)NCCOCCOCC(=O)N[C@@H](CCC(N)=O)C(=O)N[C@@H](CCCNC(=N)N)C(=O)N1CCC[C@H]1C(=O)N(C)[C@@H](CCCNC(=N)N)C(=O)N[C@@H](CC1CCCCC1)C(=O)N[C@@H](CO)C(=O)N[C@@H](Cc1c[nH]cn1)C(=O)N[C@@H](CCCCN)C(=O)NCC(=O)N1CCC[C@H]1C(=O)N[C@@H](CCCC)C(=O)N1CCC[C@H]1C(=O)N[C@@H](Cc1ccc(Cl)cc1)C(=O)O)C(=O)O
B3: Apelin polypeptide SEQ ID NO: 423 (peptide)
peptide: Tridecanoyl-[AC4Abu][AEEA][AEEA]QRP[NMeR]LS[βAla]KGP[Nle]P[Phe(4-Cl)]-OH
SMILES: CCCCCCCCCCCCC(=O)NCCC(C(=O)O)C(=O)NCCOCCOCC(=O)NCCOCCOCC(=O)N[C@@H](CCC(N)=O)C(=O)N[C@@H](CCCNC(=N)N)C(=O)N1CCC[C@H]1C(=O)N(C)[C@@H](CCCNC(=N)N)C(=O)N[C@@H](CC(C)C)C(=O)N[C@@H](CO)C(=O)NCCC(=O)N[C@@H](CCCCN)C(=O)NCC(=O)N1CCC[C@H]1C(=O)N[C@@H](CCCC)C(=O)N1CCC[C@H]1C(=O)N[C@@H](Cc1ccc(Cl)cc1)C(=O)O
B4: Apelin polypeptide SEQ ID NO: 449 (peptide)
peptide: Tridecanoyl-[γGlu][AEEA][AEEA]QRP[NMeR]LSH[1Nal]GP[Nle]P[Phe(4-Cl)]-OH
SMILES: CCCCCCCCCCCCC(=O)N[C@@H](CCC(=O)NCCOCCOCC(=O)NCCOCCOCC(=O)N[C@@H](CCC(N)=O)C(=O)N[C@@H](CCCNC(=N)N)C(=O)N1CCC[C@H]1C(=O)N(C)[C@@H](CCCNC(=N)N)C(=O)N[C@@H](CC(C)C)C(=O)N[C@@H](CO)C(=O)N[C@@H](Cc1c[nH]cn1)C(=O)N[C@@H](Cc1cccc2ccccc12)C(=O)NCC(=O)N1CCC[C@H]1C(=O)N[C@@H](CCCC)C(=O)N1CCC[C@H]1C(=O)N[C@@H](Cc1ccc(Cl)cc1)C(=O)O)C(=O)O
B5: Apelin polypeptide SEQ ID NO: 499 (peptide)
peptide: Tridecanoyl-[γGlu][AEEA][AEEA][dQ]RP[NMeR][Cha]SHKG[Pip′][Nle][Aib][Phe(4-Cl)]-OH
B6: Apelin polypeptide SEQ ID NO: 437 (peptide)
peptide: Tridecanoyl-[γGlu][AEEA][AEEA]QRP[NMeR][Cha]SVKG[Oic][Nle]P[Phe(4-Cl)]-OH
SMILES: CCCCCCCCCCCCC(=O)N[C@@H](CCC(=O)NCCOCCOCC(=O)NCCOCCOCC(=O)N[C@@H](CCC(N)=O)C(=O)N[C@@H](CCCNC(=N)N)C(=O)N1CCC[C@H]1C(=O)N(C)[C@@H](CCCNC(=N)N)C(=O)N[C@@H](CC1CCCCC1)C(=O)N[C@@H](CO)C(=O)N[C@H](C(=O)N[C@@H](CCCCN)C(=O)NCC(=O)N1[C@H](C(=O)N[C@@H](CCCC)C(=O)N2CCC[C@H]2C(=O)N[C@@H](Cc2ccc(Cl)cc2)C(=O)O)C[C@@H]2CCCC[C@@H]21)C(C)C)C(=O)O
B7: Apelin polypeptide SEQ ID NO: 464 (peptide)
peptide: Tridecanoyl-[γGlu][AEEA][AEEA]QRP[NMeR]L[βAla]HKGP[Nle]P[Phe(4-Cl)]-OH
SMILES: CCCCCCCCCCCCC(=O)N[C@@H](CCC(=O)NCCOCCOCC(=O)NCCOCCOCC(=O)N[C@@H](CCC(N)=O)C(=O)N[C@@H](CCCNC(=N)N)C(=O)N1CCC[C@H]1C(=O)N(C)[C@@H](CCCNC(=N)N)C(=O)N[C@@H](CC(C)C)C(=O)NCCC(=O)N[C@@H](Cc1c[nH]cn1)C(=O)N[C@@H](CCCCN)C(=O)NCC(=O)N1CCC[C@H]1C(=O)N[C@@H](CCCC)C(=O)N1CCC[C@H]1C(=O)N[C@@H](Cc1ccc(Cl)cc1)C(=O)O)C(=O)O
B8: Apelin polypeptide SEQ ID NO: 439 (peptide)
peptide: Tridecanoyl-[γGlu][AEEA][AEEA]QRP[NMeR][Tle]SHKG[Oic][Nle]P[Phe(4-Cl)]-OH
SMILES: CCCCCCCCCCCCC(=O)N[C@@H](CCC(=O)NCCOCCOCC(=O)NCCOCCOCC(=O)N[C@@H](CCC(N)=O)C(=O)N[C@@H](CCCNC(=N)N)C(=O)N1CCC[C@H]1C(=O)N(C)[C@@H](CCCNC(=N)N)C(=O)N[C@H](C(=O)N[C@@H](CO)C(=O)N[C@@H](Cc1c[nH]cn1)C(=O)N[C@@H](CCCCN)C(=O)NCC(=O)N1[C@H](C(=O)N[C@@H](CCCC)C(=O)N2CCC[C@H]2C(=O)N[C@@H](Cc2ccc(Cl)cc2)C(=O)O)C[C@@H]2CCCC[C@@H]21)C(C)(C)C)C(=O)O
B9: Apelin polypeptide SEQ ID NO: 436 (peptide)
peptide: Tridecanoyl-[γGlu][AEEA][AEEA]QRP[NMeR][Cha]SYKG[Oic][Nle]P[Phe(4-Cl)]-OH
SMILES: CCCCCCCCCCCCC(=O)N[C@@H](CCC(=O)NCCOCCOCC(=O)NCCOCCOCC(=O)N[C@@H](CCC(N)=O)C(=O)N[C@@H](CCCNC(=N)N)C(=O)N1CCC[C@H]1C(=O)N(C)[C@@H](CCCNC(=N)N)C(=O)N[C@@H](CC1CCCCC1)C(=O)N[C@@H](CO)C(=O)N[C@@H](Cc1ccc(O)cc1)C(=O)N[C@@H](CCCCN)C(=O)NCC(=O)N1[C@H](C(=O)N[C@@H](CCCC)C(=O)N2CCC[C@H]2C(=O)N[C@@H](Cc2ccc(Cl)cc2)C(=O)O)C[C@@H]2CCCC[C@@H]21)C(=O)O
B10: Apelin polypeptide SEQ ID NO: 450 (peptide)
peptide: XXXQRPRLXHKGPXPF
modifications: {TDA}[AC4Abu][Aeea][Aeea]QRP[NMeArg]L[Pra]HKGP[Nle]P[4-Cl-F]{COOH}
B11: Apelin polypeptide SEQ ID NO: 531 (peptide)
peptide: Tridecanoyl-[γGlu][AEEA][AEEA][dQ]RP[NMeR][Cha]SYKG[Oic][Nle][Aib][Phe(4-Cl)]-OH
SMILES: CCCCCCCCCCCCC(=O)N[C@@H](CCC(=O)NCCOCCOCC(=O)NCCOCCOCC(=O)N[C@H](CCC(N)=O)C(=O)N[C@@H](CCCNC(=N)N)C(=O)N1CCC[C@H]1C(=O)N(C)[C@@H](CCCNC(=N)N)C(=O)N[C@@H](CC1CCCCC1)C(=O)N[C@@H](CO)C(=O)N[C@@H](Cc1ccc(O)cc1)C(=O)N[C@@H](CCCCN)C(=O)NCC(=O)N1[C@H](C(=O)N[C@@H](CCCC)C(=O)NC(C)(C)C(=O)N[C@@H](Cc2ccc(Cl)cc2)C(=O)O)C[C@@H]2CCCC[C@@H]21)C(=O)O
B12: Apelin polypeptide SEQ ID NO: 467 (peptide)
peptide: Tridecanoyl-[γGlu][AEEA][AEEA]QRP[NMeR]L[Gly(N-CH2CH2OH)]HKGP[Nle]P[Phe(4-Cl)]-OH
SMILES: CCCCCCCCCCCCC(=O)N[C@@H](CCC(=O)NCCOCCOCC(=O)NCCOCCOCC(=O)N[C@@H](CCC(N)=O)C(=O)N[C@@H](CCCNC(=N)N)C(=O)N1CCC[C@H]1C(=O)N(C)[C@@H](CCCNC(=N)N)C(=O)N[C@@H](CC(C)C)C(=O)N(CCO)CC(=O)N[C@@H](Cc1c[nH]cn1)C(=O)N[C@@H](CCCCN)C(=O)NCC(=O)N1CCC[C@H]1C(=O)N[C@@H](CCCC)C(=O)N1CCC[C@H]1C(=O)N[C@@H](Cc1ccc(Cl)cc1)C(=O)O)C(=O)O
B13: Apelin polypeptide SEQ ID NO: 544 (peptide)
peptide: Tridecanoyl-[γGlu][AEEA][AEEA][dQ]RP[NMeR][Cha]SHKG[Pip′][Nle][β3hP][Phe(4-Cl)]-OH

Legend:
rat APJ receptor = biological target: T1, rat APJ receptor; assay: cell-based or functional assay
human APJ receptor = biological target: T2, human APJ receptor; assay: cell-based or functional assay

Row | Binder | EC50 Rat APJ Receptor (GTPγS assay) (rat APJ receptor) [nM] | EC50 Human APJ Receptor (GTPγS assay) (human APJ receptor) [nM]
1 | B1 | 4 | 1.2
2 | B2 | 0.086 | 0.308
3 | B3 | 1.18 | 0.645
4 | B4 | 0.47 | 0.394
5 | B5 | 0.0852 | 0.0236
6 | B6 | 0.725 | 0.663
7 | B7 | 0.377 | 0.0542
8 | B8 | 3.21 | 2.15
9 | B9 | 1.47 | 0.793
10 | B10 | 0.313 | 0.132
11 | B11 | 5.66 | 0.852
12 | B12 | 0.521 | 0.129
13 | B13 | 5.61 | 2.42
